According to FireProtDB (doi:10.1093/oxfordjournals.jbchem.a021544):

B1: Lysozyme C, P61626 (parent)
chain: MKALIVLGLVLLSVTVQGKVFERCELARTLKRLGMDGYRGISLANWMCLAKWESGYNTRATNYNAGDRSTDYGIFQINSRYWCNDGKTPGAVNACHLSCSALLQDNIADAVACAKRVVRDPQGIRAWVAWRNRCQNRDVRQYVQGCGV

Variants of: B1
Settings: Homo sapiens; pH 2.67; Thermal; DSC; glycine 0.05 M; reversible: yes; structure 1LZ1; whole UniProt chain shown

Row | Variant | Tm | heat capacity change of unfolding | unfolding enthalpy (calorimetric) | unfolding enthalpy (van 't Hoff)
1 | I74T | 51.8 °C | 1 kcal/mol/K | 87.8 kcal/mol | 90.9 kcal/mol

Same assay, conditions: Homo sapiens; pH 2.7; 64.9 °C; Thermal; DSC; glycine 0.05 M; reversible: yes; structure 1LZ1; whole UniProt chain shown

Row | Variant | ddG of mutation (higher = less stable) | heat capacity change of unfolding
2 | I74T | 3.64 kcal/mol | 1.24 kcal/mol/K

Same assay, conditions: Homo sapiens; pH 2.7; Thermal; DSC; glycine 0.05 M; reversible: yes; structure 1LZ1; whole UniProt chain shown

Row | Variant | Tm | change of melting temperature, mutant - wild type (higher = more stable) | heat capacity change of unfolding | unfolding enthalpy (calorimetric) | unfolding enthalpy (van 't Hoff)
3 | I74T | 52.4 °C | -12.5 °C | 1.24 kcal/mol/K | 102 kcal/mol | 108 kcal/mol

Same assay, conditions: Homo sapiens; pH 2.98; Thermal; DSC; glycine 0.05 M; reversible: yes; structure 1LZ1; whole UniProt chain shown

Row | Variant | Tm | heat capacity change of unfolding | unfolding enthalpy (calorimetric) | unfolding enthalpy (van 't Hoff)
4 | I74T | 58 °C | 1.2 kcal/mol/K | 93.3 kcal/mol | 102 kcal/mol

Same assay, conditions: Homo sapiens; pH 3.11; Thermal; DSC; glycine 0.05 M; reversible: yes; structure 1LZ1; whole UniProt chain shown

Row | Variant | Tm | heat capacity change of unfolding | unfolding enthalpy (calorimetric) | unfolding enthalpy (van 't Hoff)
5 | I74T | 60.5 °C | 1.15 kcal/mol/K | 97.6 kcal/mol | 103 kcal/mol
